# From the supplement of paper PMC10065799, “High-throughput profiling of sequence recognition by tyrosine kinases and SH2 domains using bacterial peptide display” (eLife, 2023)
# Assays:
# MERTK = MERTK (UniProt Q12866); assay: phosphorylation enrichment, bacterial display (enrichment ratio); higher = better substrate or ligand; peptides without Tyr show the background
# FGFR1 = FGFR1 (UniProt P11362); assay: as above
# EPHB1 = EPHB1 (UniProt P54762); assay: as above
# EPHB2 = EPHB2 (UniProt P29323); assay: as above
# AncSZ = assay: as above
# Fes = Fes (UniProt P07332); assay: as above
# Jak2 = Jak2 (UniProt O60674); assay: as above
# Chain of Jak2 (O60674 whole entry, looked up): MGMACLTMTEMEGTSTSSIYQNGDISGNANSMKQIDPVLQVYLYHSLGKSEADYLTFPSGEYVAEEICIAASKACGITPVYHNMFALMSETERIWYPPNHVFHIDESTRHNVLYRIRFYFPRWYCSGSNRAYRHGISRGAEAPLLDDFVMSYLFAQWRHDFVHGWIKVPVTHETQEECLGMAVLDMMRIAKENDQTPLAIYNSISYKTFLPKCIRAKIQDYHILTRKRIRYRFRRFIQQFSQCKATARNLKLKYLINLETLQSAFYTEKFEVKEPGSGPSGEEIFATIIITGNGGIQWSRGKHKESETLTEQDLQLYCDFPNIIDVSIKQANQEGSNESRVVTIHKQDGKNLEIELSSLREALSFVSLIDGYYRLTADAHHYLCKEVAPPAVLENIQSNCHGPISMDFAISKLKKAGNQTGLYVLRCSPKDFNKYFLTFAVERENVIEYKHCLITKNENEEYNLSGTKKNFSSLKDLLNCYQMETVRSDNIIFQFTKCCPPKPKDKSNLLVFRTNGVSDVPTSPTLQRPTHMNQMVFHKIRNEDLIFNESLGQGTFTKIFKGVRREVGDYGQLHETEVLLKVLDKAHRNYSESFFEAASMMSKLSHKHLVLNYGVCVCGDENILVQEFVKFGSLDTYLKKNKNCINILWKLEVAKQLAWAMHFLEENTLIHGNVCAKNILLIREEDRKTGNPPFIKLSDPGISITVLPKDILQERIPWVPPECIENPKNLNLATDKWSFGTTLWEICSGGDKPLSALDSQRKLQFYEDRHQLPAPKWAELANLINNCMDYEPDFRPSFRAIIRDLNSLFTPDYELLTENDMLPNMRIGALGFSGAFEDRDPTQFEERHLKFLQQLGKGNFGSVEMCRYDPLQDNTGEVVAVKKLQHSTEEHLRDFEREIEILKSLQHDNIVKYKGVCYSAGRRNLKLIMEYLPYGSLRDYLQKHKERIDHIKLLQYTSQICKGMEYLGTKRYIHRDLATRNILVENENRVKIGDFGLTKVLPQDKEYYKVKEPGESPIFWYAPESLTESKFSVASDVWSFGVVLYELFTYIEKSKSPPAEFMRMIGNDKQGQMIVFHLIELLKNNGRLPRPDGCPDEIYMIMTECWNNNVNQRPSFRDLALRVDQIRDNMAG
# Hck = Hck (UniProt P08631); assay: as above
# c-Src = assay: as above
# FGFR3 = FGFR3 (UniProt P22607); assay: as above
# Chain of FGFR3 (P22607 whole entry, looked up): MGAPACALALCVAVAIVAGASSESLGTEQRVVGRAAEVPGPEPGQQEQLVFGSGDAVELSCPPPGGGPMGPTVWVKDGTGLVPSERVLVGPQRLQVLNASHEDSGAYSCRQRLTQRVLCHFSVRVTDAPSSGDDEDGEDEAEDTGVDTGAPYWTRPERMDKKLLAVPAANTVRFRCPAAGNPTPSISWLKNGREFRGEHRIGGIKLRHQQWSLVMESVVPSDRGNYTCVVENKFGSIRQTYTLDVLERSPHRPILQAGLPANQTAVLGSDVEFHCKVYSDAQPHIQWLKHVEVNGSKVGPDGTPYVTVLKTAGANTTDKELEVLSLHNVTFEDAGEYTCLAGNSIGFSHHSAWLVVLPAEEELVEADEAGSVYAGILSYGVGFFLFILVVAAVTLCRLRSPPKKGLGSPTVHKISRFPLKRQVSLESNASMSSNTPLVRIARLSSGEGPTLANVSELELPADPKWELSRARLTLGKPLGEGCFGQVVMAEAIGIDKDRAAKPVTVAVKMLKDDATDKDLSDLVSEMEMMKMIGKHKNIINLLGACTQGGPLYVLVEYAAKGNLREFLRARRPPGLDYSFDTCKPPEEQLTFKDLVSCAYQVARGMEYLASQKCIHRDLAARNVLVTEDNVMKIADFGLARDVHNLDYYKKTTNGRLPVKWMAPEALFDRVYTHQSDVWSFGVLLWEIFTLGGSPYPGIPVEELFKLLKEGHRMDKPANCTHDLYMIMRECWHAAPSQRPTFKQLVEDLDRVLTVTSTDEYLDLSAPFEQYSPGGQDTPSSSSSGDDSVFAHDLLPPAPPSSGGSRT
# Fyn = Fyn (UniProt P06241); assay: as above
# Chain of Fyn (P06241 whole entry, looked up): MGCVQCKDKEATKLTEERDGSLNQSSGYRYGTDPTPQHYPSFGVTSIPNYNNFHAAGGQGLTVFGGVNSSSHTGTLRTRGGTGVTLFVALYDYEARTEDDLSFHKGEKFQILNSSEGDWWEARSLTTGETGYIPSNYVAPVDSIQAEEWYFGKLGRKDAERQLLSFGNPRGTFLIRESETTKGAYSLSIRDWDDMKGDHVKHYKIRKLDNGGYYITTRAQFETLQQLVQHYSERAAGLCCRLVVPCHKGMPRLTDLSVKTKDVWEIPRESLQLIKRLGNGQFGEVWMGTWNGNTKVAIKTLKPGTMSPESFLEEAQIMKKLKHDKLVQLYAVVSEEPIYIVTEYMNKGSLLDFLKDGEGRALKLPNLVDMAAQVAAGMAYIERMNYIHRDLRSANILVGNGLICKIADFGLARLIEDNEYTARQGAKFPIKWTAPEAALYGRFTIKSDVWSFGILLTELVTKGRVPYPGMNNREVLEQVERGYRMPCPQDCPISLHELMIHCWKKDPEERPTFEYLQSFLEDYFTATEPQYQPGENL
# c-Abl (mouse) = assay: as above
# Fer (mouse) = assay: as above
# SHP2-C SH2 = assay: SH2 binding enrichment of the phosphorylated peptide, bacterial display (enrichment ratio); higher = better substrate or ligand; peptides without Tyr show the background
# Grb2 SH2 = Grb2 SH2 (UniProt P62993); assay: as above
# Chain of Grb2 SH2 (P62993 whole entry, looked up): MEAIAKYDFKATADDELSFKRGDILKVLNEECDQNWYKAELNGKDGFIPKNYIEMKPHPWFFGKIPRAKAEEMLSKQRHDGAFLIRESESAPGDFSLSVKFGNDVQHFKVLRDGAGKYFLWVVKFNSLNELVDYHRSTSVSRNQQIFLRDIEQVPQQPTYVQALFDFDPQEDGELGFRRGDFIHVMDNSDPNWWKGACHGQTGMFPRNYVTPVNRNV
# c-Src SH2 = assay: as above
# 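Wherever SH2 binding enrichment of the phosphorylated peptide, bacterial display is given: peptide library displayed on the E. coli surface as eCPX fusions, selected cells deep-sequenced, score is each peptide's frequency after selection divided by its frequency in the input.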
# 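Wherever phosphorylation enrichment, bacterial display is given: 11-residue human phosphosite peptides and single-mutation variants displayed on the E. coli surface, counted by deep sequencing, each peptide's frequency after selection divided by its frequency in the unselected input library; frequency after pTyr selection over input frequency; kinase dosed for 20-30% of maximal phosphorylation in three min.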
# Chain of MERTK (Q12866 whole entry, looked up): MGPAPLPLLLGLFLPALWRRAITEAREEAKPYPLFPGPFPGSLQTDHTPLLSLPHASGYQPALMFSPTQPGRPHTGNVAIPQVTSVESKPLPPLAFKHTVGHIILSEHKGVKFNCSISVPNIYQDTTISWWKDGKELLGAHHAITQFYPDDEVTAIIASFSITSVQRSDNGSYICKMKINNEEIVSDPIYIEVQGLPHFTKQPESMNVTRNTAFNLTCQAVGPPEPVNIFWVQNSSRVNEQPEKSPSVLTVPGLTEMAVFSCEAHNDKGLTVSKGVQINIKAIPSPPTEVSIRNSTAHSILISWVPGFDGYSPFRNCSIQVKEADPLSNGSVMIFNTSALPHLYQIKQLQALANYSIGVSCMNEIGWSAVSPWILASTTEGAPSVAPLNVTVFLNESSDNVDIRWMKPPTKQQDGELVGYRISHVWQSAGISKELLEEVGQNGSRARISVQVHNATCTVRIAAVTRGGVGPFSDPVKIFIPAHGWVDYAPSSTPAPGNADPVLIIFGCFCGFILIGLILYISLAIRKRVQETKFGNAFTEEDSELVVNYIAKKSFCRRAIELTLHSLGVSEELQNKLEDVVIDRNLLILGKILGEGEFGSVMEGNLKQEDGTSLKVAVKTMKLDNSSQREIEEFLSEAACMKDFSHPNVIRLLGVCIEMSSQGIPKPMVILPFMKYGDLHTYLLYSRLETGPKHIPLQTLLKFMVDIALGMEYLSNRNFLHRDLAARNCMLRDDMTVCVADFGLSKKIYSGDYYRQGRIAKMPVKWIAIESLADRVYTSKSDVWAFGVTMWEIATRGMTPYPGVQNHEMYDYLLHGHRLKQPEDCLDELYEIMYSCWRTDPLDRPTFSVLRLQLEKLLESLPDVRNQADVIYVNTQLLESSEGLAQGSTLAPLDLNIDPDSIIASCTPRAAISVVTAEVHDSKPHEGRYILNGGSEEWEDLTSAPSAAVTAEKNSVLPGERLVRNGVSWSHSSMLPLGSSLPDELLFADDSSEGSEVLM
# Chain of EPHB1 (P54762 whole entry, looked up): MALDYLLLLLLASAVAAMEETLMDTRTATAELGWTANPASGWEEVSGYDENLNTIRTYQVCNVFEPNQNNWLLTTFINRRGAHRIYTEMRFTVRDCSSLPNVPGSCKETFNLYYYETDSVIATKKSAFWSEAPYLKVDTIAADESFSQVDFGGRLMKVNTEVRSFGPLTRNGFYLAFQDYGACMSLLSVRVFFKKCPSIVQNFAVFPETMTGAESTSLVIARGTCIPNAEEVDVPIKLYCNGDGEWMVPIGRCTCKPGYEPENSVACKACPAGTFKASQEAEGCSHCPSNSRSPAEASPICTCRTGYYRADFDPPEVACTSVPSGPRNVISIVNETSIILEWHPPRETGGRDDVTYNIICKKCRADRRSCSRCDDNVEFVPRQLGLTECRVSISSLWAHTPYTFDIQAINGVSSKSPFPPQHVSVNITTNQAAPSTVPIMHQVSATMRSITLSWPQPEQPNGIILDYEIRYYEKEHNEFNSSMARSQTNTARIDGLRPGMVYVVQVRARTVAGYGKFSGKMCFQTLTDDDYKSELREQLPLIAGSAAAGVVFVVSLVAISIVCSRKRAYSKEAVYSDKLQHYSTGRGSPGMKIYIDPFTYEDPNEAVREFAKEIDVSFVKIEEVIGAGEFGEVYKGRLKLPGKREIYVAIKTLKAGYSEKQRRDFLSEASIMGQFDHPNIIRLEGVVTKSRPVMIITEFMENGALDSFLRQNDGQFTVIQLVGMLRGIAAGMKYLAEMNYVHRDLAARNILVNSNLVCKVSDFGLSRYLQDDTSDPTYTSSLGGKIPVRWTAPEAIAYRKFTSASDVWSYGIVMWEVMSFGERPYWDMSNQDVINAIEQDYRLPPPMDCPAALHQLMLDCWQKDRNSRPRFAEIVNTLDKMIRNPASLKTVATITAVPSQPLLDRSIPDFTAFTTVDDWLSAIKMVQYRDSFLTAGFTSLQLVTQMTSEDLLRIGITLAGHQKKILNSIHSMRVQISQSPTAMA
Sequence,phosphorylation enrichment (MERTK),phosphorylation enrichment (FGFR1),phosphorylation enrichment (EPHB1),phosphorylation enrichment (EPHB2),phosphorylation enrichment (AncSZ),phosphorylation enrichment (Fes),phosphorylation enrichment (Jak2),phosphorylation enrichment (Hck),phosphorylation enrichment (c-Src),phosphorylation enrichment (FGFR3),phosphorylation enrichment (Fyn),phosphorylation enrichment (c-Abl (mouse)),phosphorylation enrichment (Fer (mouse)),SH2 binding enrichment (SHP2-C SH2),SH2 binding enrichment (Grb2 SH2),SH2 binding enrichment (c-Src SH2)
IHFAIYFLKFS [ARMC9_Y107_L108F_YF],0.406,0.441,0.473,0.576,0.835,0.956,0.636,0.561,0.434,0.674,0.448,0.636,0.485,1.86,1.93,1.12
IIWDSYTTNKV [GNB1_Y85],0.356,0.489,0.498,0.598,1.2,1.21,0.863,0.482,0.395,0.729,0.46,0.687,0.665,0.77,0.76,0.543
IKGNMYYENSY [EGFR_Y112_R108K],0.946,0.535,0.469,0.583,0.746,0.874,0.591,0.462,0.54,0.641,0.503,0.632,0.609,0.713,6.83,4.57
IKKLIYVFLVI [JAGN1_Y42_H44Y_YF],0.547,0.716,0.556,0.547,0.884,1.1,0.736,0.393,0.424,0.797,0.462,0.701,0.454,1.79,2,1.22
IKNSGYISRYL [EIF2AK3_Y585],0.404,0.513,0.443,0.406,0.558,0.711,0.538,0.33,0.448,0.531,0.4,0.558,0.376,1.01,1.08,0.706
IKSSIYDNRNE [ARAP2_Y380_K384N],0.405,0.443,0.413,0.502,0.505,0.584,0.466,0.696,0.399,0.388,0.464,0.397,0.33,0.593,0.682,0.608
ILGRFYERGSI [PAX5_Y73_T75R_YF],0.395,0.413,0.392,0.476,0.651,0.674,0.662,0.486,0.451,0.517,0.483,0.532,0.398,1.16,0.71,0.575
INNIDYYKKTT [FGFR2_Y656],0.501,0.524,0.461,0.506,0.808,0.876,0.618,0.486,0.426,0.473,0.425,0.627,0.334,0.364,0.743,0.415
IRRWVYPLTPE [EIF2B5_Y319],0.476,0.451,0.406,0.522,0.934,0.943,0.732,0.481,0.437,0.613,0.514,0.464,0.559,0.716,0.811,0.517
IRTIDYRFTVC [IDS_Y497_W502C_YF],0.396,0.561,0.787,0.579,1.22,1.38,1.14,0.581,0.469,0.832,0.444,0.952,0.518,0.739,0.85,0.407
ISKKIYDTIHD [CTNNA3_Y614],0.445,0.433,0.351,0.516,0.555,0.587,0.582,0.742,0.579,0.357,0.584,0.452,0.421,0.675,0.746,5.91
ITKQEYDEAGP [ACTA1_Y364],0.423,0.475,0.553,0.488,1.14,1.08,0.881,0.51,0.422,0.689,0.563,0.679,0.494,0.786,0.869,7.7
ITSLLYHVVGW [GBA_Y412_N409S],7.37,5.64,5.12,2.99,1.32,1.31,2.57,4.74,3.6,5,3.16,2,2.94,1.22,1.14,0.959
IVEFAYNDKAI [PUM3_Y259_YF],0.494,0.432,0.395,0.59,0.783,0.74,0.668,0.52,0.474,0.525,0.475,0.538,0.406,0.719,0.642,0.419
IYHLSYHHNCE [PDE6B_Y227_L228H],3.55,1.32,0.703,0.602,1.29,1.34,1.03,1.51,2.29,1.17,2.15,2.09,0.671,1.19,1.09,0.833
KAIMTYVPSFY [ACTN4_Y260_S262P],0.439,0.378,0.413,0.63,0.67,0.646,0.639,0.425,0.472,0.509,0.52,0.803,0.415,1.03,0.818,1.15
KDFTKYVAFIE [KDM4B_Y31_N29T_YF],0.481,0.442,0.55,0.626,0.849,1.06,0.879,0.462,0.457,0.623,0.521,0.614,0.422,1.79,0.894,0.674

Sequence,phosphorylation enrichment (MERTK),phosphorylation enrichment (FGFR1),phosphorylation enrichment (EPHB1),phosphorylation enrichment (EPHB2),phosphorylation enrichment (AncSZ),phosphorylation enrichment (Fes),phosphorylation enrichment (Jak2),phosphorylation enrichment (Hck),phosphorylation enrichment (c-Src),phosphorylation enrichment (FGFR3),phosphorylation enrichment (Fyn),phosphorylation enrichment (c-Abl (mouse)),phosphorylation enrichment (Fer (mouse)),SH2 binding enrichment (SHP2-C SH2),SH2 binding enrichment (Grb2 SH2),SH2 binding enrichment (c-Src SH2)
KDFTKYVAYIE [KDM4B_Y31_N29T],0.465,0.604,0.651,0.584,0.864,1.07,0.921,0.558,0.523,0.734,0.541,0.679,0.434,2.42,0.966,0.608
KDHPDYKYQLR [SOX10_Y171_P175L],0.38,0.432,0.417,0.395,0.665,0.704,0.656,0.431,0.411,0.491,0.403,0.696,0.418,0.793,0.93,0.631
KEAALYPHLLP [SQSTM1_Y383_P387L],0.432,0.512,0.427,0.544,0.648,0.757,0.649,0.438,0.366,0.481,0.405,0.549,0.419,0.645,0.87,0.436
KEIHAYRKLLE [LMNA_Y376_M371K],0.414,0.429,0.397,0.481,0.63,0.76,0.59,0.476,0.506,0.487,0.344,0.489,0.468,0.569,0.68,0.459
KENITYMKREQ [L1TD1_Y24],0.453,0.462,0.498,0.514,0.827,1.05,0.828,0.554,0.58,0.554,0.443,0.703,0.431,0.692,0.809,0.498
KFFRVYQGQQP [MUTYH_Y494_V490F],0.447,0.592,0.452,0.507,0.898,0.842,0.627,0.495,0.457,0.78,0.623,0.652,0.431,0.596,0.953,0.633
KFMVGYEMIAQ [GALT_Y339_L342I],0.457,0.492,0.58,0.569,1.03,1.06,0.956,0.507,0.427,0.723,0.444,0.696,0.487,0.884,0.914,7.36
KGEDFYCVTYH [FHL1_Y149_C153Y],3.58,1.1,1.09,1.12,1.84,1.5,1.25,1.71,2.37,1.22,2.6,1.04,2.15,0.484,0.562,0.39
KGERGYPGTPG [COL4A1_Y348],0.356,0.354,0.336,0.372,0.384,0.433,0.359,0.38,0.419,0.406,0.311,0.42,0.399,0.77,0.832,0.482
KGSEGYLAATF [NF1_Y2503_YF],0.514,0.444,0.41,0.402,0.654,0.658,0.709,0.416,0.564,0.549,0.501,0.634,0.45,0.847,0.766,0.474
KHASTYREAAT [DEAF1_Y483],0.359,0.339,0.328,0.324,0.425,0.518,0.356,0.344,0.307,0.39,0.322,0.52,0.363,0.755,0.874,0.625
KHGGNYVPAPE [OSCP1_Y237_K242E],0.345,0.403,0.369,0.471,0.754,0.626,0.471,0.325,0.405,0.477,0.398,0.455,0.36,0.614,0.619,0.456
KIFPEYLSNWT [AIFM1_Y347_L344F],0.47,0.811,0.513,0.512,0.914,0.916,1.18,0.488,0.479,0.721,0.43,0.657,0.502,0.614,0.944,0.628
KINKMYSDHAM,0.432,0.315,0.351,0.285,0.495,0.463,0.5,0.308,0.416,0.364,0.349,0.499,0.408,0.602,0.705,0.354
KKFPDYIQIAM [SGMS2_Y59_YF],0.461,8.61,4.26,0.672,1.13,1.06,1.07,0.496,0.556,5.17,0.468,0.7,0.427,0.946,0.93,0.76
KKFVPYYDLFM [IPO5_Y530_E525K],6.5,4.49,4.25,4.22,0.895,1.05,1.07,2.1,2.32,3.24,2.06,0.686,1.3,1.14,1.6,2.43
